According to IntAct's records for PubMed 22500027:

B1: BBSome complex member BBS4 (Homo sapiens), Q96RK4 (parent)
chain: MAEERVATRTQFPVSTESQKPRQKKAPEFPILEKQNWLIHLHYIRKDYEACKAVIKEQLQETQGLCEYAIYVQALIFRLEGNIQESLELFQTCAVLSPQSADNLKQVARSLFLLGKHKAAIEVYNEAAKLNQKDWEISHNLGVCYIYLKQFNKAQDQLHNALNLNRHDLTYIMLGKIHLLEGDLDKAIEVYKKAVEFSPENTELLTTLGLLYLQLGIYQKAFEHLGNALTYDPTNYKAILAAGSMMQTHGDFDVALTKYRVVACAVPESPPLWNNIGMCFFGKKKYVAAISCLKRANYLAPFDWKILYNLGLVHLTMQQYASAFHFLSAAINFQPKMGELYMLLAVALTNLEDIENAKRAYAEAVHLDKCNPLVNLNYAVLLYNQGEKKNALAQYQEMEKKVSLLKDNSSLEFDSEMVEMAQKLGAALQVGEALVWTKPVKDPKSKHQTTSTSKPASFQQPLGSNQALGQAMSSAAAYRTLPSGAGGTSQFTKPPSLPLEPEPAVESSPTETSEQIREK
B2: BBSome complex member BBS1 (Homo sapiens), Q8NFJ9 (parent)
chain: MAAASSSDSDACGAESNEANSKWLDAHYDPMANIHTFSACLALADLHGDGEYKLVVGDLGPGGQQPRLKVLKGPLVMTESPLPALPAAAATFLMEQHEPRTPALALASGPCVYVYKNLRPYFKFSLPQLPPNPLEQDLWNQAKEDRIDPLTLKEMLESIRETAEEPLSIQSLRFLQLELSEMEAFVNQHKSNSIKRQTVITTMTTLKKNLADEDAVSCLVLGTENKELLVLDPEAFTILAKMSLPSVPVFLEVSGQFDVEFRLAAACRNGNIYILRRDSKHPKYCIELSAQPVGLIRVHKVLVVGSTQDSLHGFTHKGKKLWTVQMPAAILTMNLLEQHSRGLQAVMAGLANGEVRIYRDKALLNVIHTPDAVTSLCFGRYGREDNTLIMTTRGGGLIIKILKRTAVFVEGGSEVGPPPAQAMKLNVPRKTRLYVDQTLREREAGTAMHRAFQTDLYLLRLRAARAYLQALESSLSPLSTTAREPLKLHAVVQGLGPTFKLTLHLQNTSTTRPVLGLLVCFLYNEALYSLPRAFFKVPLLVPGLNYPLETFVESLSNKGISDIIKVLVLREGQSAPLLSAHVNMPGSEGLAAA
partner: B1 chain

Variants of: B1
Details: with pcm1_human PCM1, Q15154
pcm1_human PCM1, Q15154, sequence (Q15154 whole entry): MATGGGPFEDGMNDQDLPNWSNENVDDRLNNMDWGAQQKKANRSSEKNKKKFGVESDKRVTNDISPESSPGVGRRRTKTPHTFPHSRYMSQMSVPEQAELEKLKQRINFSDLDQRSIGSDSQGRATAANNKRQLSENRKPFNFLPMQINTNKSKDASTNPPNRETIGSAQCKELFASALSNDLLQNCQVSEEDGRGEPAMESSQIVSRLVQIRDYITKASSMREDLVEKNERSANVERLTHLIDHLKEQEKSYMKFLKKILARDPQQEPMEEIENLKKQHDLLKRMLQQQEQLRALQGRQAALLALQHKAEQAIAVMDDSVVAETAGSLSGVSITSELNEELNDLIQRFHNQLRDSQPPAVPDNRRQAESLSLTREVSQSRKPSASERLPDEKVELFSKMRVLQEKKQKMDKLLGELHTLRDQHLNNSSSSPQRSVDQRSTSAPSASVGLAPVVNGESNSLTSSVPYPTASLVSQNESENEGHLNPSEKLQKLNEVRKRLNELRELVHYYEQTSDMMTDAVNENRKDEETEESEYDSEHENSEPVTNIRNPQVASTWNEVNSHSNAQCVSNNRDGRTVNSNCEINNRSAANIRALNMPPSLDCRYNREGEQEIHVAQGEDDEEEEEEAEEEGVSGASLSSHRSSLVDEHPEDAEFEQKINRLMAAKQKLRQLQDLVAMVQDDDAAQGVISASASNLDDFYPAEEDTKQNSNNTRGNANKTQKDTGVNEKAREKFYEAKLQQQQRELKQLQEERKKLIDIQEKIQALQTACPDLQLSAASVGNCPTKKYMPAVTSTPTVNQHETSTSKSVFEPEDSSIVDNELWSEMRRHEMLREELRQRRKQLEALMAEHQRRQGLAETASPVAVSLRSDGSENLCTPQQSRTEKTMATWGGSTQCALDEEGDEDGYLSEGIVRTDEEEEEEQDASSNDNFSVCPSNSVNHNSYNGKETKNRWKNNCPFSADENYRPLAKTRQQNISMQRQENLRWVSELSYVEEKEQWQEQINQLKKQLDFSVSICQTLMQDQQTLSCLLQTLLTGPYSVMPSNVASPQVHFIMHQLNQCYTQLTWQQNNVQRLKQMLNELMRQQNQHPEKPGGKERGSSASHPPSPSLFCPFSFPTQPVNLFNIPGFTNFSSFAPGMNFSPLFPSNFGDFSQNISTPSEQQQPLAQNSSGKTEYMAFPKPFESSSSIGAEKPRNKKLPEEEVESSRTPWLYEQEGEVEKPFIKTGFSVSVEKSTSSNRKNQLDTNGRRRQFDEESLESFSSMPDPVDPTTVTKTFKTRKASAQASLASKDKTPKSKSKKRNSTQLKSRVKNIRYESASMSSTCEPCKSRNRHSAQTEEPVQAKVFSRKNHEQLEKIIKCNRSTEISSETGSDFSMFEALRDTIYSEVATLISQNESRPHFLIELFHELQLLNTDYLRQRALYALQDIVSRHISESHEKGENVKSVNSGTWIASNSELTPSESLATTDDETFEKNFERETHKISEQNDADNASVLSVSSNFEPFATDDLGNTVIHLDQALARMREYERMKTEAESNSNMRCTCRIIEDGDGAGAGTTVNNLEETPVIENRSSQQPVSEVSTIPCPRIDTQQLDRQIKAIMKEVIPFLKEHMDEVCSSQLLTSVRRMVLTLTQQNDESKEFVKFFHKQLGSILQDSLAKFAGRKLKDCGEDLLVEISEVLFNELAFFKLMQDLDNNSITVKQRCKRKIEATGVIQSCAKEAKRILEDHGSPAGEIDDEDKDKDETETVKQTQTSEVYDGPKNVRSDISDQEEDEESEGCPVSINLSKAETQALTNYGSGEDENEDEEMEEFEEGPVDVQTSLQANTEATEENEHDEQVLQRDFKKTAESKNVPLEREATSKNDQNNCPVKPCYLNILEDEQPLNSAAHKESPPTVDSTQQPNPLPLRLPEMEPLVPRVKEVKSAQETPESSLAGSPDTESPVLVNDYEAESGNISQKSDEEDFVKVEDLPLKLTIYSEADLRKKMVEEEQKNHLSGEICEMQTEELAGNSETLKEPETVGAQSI

| effect of a mutation on the interaction | Variant |
| --- | --- |
| disrupting interaction | MAEERVATRTQFPVSTESQKPRQKKAPEFPILEKQNWLIHLHYIRKDYEACKAVIKEQLQETQGLCEYAIYVQALIFRLEGNIQESLELFQTCAVLSPQSADNLKQVARSLFLLGKHKAAIEVYNEAAKLNQKDWEISHNLGVCYIYLKQFNKAQDQLHNALNLNRHDLTYIMLGKIHLLEGDLDKAIEVYKKAVEFSPENTELLTTLGLLYLQLGIYQKAFEHLGNALTYDPTNYKAILAAGSMMQTHGDFDVALTKYRVVACAVPESPPLWNNIGMCFFGKKKYVAAISCLKPANYLAPFDWKILYNLGLVHLTMQQYASAFHFLSAAINFQPKMGELYMLLAVALTNLEDIENAKRAYAEAVHLDKCNPLVNLNYAVLLYNQGEKKNALAQYQEMEKKVSLLKDNSSLEFDSEMVEMAQKLGAALQVGEALVWTKPVKDPKSKHQTTSTSKPASFQQPLGSNQALGQAMSSAAAYRTLPSGAGGTSQFTKPPSLPLEPEPAVESSPTETSEQIREK [R295P] |
| disrupting interaction | MAEERVATRTQFPVSTESQKPRQKKAPEFPILEKQNWLIHLHYIRKDYEACKAVIKEQLQETQGLCEYAIYVQALIFRLEGNIQESLELFQTCAVLSPQSADNLKQVARSLFLLGKHKAAIEVYNEAAKLNQKDWEISHNLGVCYIYLKQFNKAQDQLHNALNLNRHDLTYIMLGKIHLLEGDLDKAIEVYKKAVEFSPENTELLTTLGLLYLQLGIYQKAFEHLGNALTYDPTNYKAILAAGSMMQTHGDFDVALTKYRVVACAVPESPPLWNNIEMCFFGKKKYVAAISCLKRANYLAPFDWKILYNLGLVHLTMQQYASAFHFLSAAINFQPKMGELYMLLAVALTNLEDIENAKRAYAEAVHLDKCNPLVNLNYAVLLYNQGEKKNALAQYQEMEKKVSLLKDNSSLEFDSEMVEMAQKLGAALQVGEALVWTKPVKDPKSKHQTTSTSKPASFQQPLGSNQALGQAMSSAAAYRTLPSGAGGTSQFTKPPSLPLEPEPAVESSPTETSEQIREK [G277E] |

Variants of: B2
Details: with bbs4_human BBS4, Q96RK4

| effect of a mutation on the interaction | Variant |
| --- | --- |
| decreasing interaction | MAAASSSDSDACGAESNEANSKWLDAHYDPMANIHTFSACLALADLHGDGEYKLVVGDLGPGGQQPRLKVLKGPLVMTESPLPALPAAAATFLMEQHEPRTPALALASGPCVYVYKNLRPYFKFSLPQLPPNPLEQDLWNQAKEDRIDPLTLKEMLESIRETAEEPLSIQSLRFLQLELSEMEAFVNQHKSNSIKRQTVITTMTTLKKNLADEDAVSCLVLGTENKELLVLDPEAFTILAKMSLPSVPVFLEVSGQFDVEFRLAAACRNGNIYILRRDSKHPKYCIELSAQPVGLIRVHKVLVVGSTQDSLHGFTHKGKKLWTVQMPAAILTMNLLEQHSRGLQAVMAGLANGEVRIYRDKALLNVIHTPDAVTSLCFGRYGREDNTLIRTTRGGGLIIKILKRTAVFVEGGSEVGPPPAQAMKLNVPRKTRLYVDQTLREREAGTAMHRAFQTDLYLLRLRAARAYLQALESSLSPLSTTAREPLKLHAVVQGLGPTFKLTLHLQNTSTTRPVLGLLVCFLYNEALYSLPRAFFKVPLLVPGLNYPLETFVESLSNKGISDIIKVLVLREGQSAPLLSAHVNMPGSEGLAAA [M390R] |
